Measurements from PMC3441668.

Target: Bcl-xL (UniProt Q07817)
Experiment: anti-myc co-IP, Bcl-xL immunoblot
Conditions: reference: myc-Rad9 wild type; sites S328

Substance: Rad9 (from UniProt Q99638) myc-Rad9 S328A
- binding against the reference: weaker
